Results on 8 molecules are retold here after article doi:10.1101/2020.02.28.970301.

In experiment [1] the target is MBP-RAMP1.24-111-(GS)5-CLR.29-144-H6 (human) (UniProt O60894). Put plainly: fluorescence polarisation. For orientation: Polarisation of emitted light reports the rotation of a fluorescent probe.
Experiment [2] has as its target MBP-RAMP2.55-140[L106R]-(GS)5-CLR.29-144-H6 (human) (UniProt O60895). Put plainly: fluorescence polarisation.
The target of experiment [3] is RAMP2:CLR full-length receptor complex (AM1 receptor) (human) (UniProt O60895).
Experiment [4] concerns the target MBP-RAMP3.25-111-(GS)5-CLR.29-144-H6 (human) (UniProt O60896). Put plainly: fluorescence polarisation.
In experiment [5] the target is RAMP1:CLR full-length receptor complex (CGRP receptor) (human) (UniProt O60894).
Experiment [6] deals with RAMP3:CLR full-length receptor complex (AM2 receptor) (human) (UniProt O60896).
Experiment [7] concerns the target T1, MBP-RAMP1.24-111-(GS)5-CLR.29-144-H6 (human), O60894.
T1 chain: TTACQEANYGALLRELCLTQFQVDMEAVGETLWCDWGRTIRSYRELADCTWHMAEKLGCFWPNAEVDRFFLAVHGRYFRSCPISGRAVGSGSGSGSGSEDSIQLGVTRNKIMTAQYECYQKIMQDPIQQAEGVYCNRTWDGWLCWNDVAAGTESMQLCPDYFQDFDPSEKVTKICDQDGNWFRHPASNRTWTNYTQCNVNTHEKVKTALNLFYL
Put plainly: fluorescence polarisation.

Sequence of RAMP2:CLR full-length receptor complex (AM1 receptor) (human) (O60895 43-175, chain 1 of 2): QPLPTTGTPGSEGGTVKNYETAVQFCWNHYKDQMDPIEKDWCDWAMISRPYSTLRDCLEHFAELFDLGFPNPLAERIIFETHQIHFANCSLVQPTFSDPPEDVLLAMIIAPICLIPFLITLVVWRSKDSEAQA
Sequence of RAMP2:CLR full-length receptor complex (AM1 receptor) (human) (Q16602 23-461, chain 2 of 2, further chain): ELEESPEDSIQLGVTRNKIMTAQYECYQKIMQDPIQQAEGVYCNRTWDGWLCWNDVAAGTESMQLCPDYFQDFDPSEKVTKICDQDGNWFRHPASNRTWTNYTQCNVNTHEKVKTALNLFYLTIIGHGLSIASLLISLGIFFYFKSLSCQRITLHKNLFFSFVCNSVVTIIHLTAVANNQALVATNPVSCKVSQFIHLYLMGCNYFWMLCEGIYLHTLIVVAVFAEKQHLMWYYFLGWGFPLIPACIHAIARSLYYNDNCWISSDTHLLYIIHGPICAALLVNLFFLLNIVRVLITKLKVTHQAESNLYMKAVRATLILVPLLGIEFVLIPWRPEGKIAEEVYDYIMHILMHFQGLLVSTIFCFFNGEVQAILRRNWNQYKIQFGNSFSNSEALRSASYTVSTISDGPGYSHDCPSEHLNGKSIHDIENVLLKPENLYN
Sequence of RAMP1:CLR full-length receptor complex (CGRP receptor) (human) (O60894 27-148, chain 1 of 2): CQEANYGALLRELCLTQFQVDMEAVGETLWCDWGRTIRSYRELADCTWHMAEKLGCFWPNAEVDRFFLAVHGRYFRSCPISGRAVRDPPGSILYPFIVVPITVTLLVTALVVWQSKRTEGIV
Sequence of RAMP1:CLR full-length receptor complex (CGRP receptor) (human) (Q16602 23-461, chain 2 of 2, further chain): as the sequence (Q16602 23-461, chain 2 of 2, further chain) above
Sequence of RAMP3:CLR full-length receptor complex (AM2 receptor) (human) (O60896 24-148, chain 1 of 2): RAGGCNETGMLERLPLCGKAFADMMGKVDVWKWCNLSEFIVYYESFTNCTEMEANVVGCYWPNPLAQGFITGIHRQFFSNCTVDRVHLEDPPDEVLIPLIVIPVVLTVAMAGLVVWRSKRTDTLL
Sequence of RAMP3:CLR full-length receptor complex (AM2 receptor) (human) (Q16602 23-461, chain 2 of 2, further chain): as the sequence (Q16602 23-461, chain 2 of 2, further chain) above

The molecule AM2/IMD S43G/H45W (peptide) had a pKI in experiment [1] of 4.75.
With AM S48G (peptide), the fold increase in affinity against wild-type AM in experiment [2] came out at 5 fold.
Consider AM(22-52) S48G/Q50W (peptide), for which, in experiment [3], the antagonism of cAMP signalling in COS-7 cells, apparent KB (Gaddum/Schild) turned out to be 80 pM.
Turning to AM(37-52) S45R/K46A/S48G/Q50W (peptide), the fold decrease in affinity against S45R/K46L/S48G/Q50W in experiment [1], in experiment [2] and in experiment [4] was 10 fold throughout.
On to AM(37-52) S45R/K46L/Q50W (peptide), for which the fold increase in affinity against K46L/Q50W in experiment [1] came to 5 fold; in experiment [2], 17 fold; in experiment [4], 5 fold.
AM(37-52) S48G/Q50W (peptide): the fold increase in affinity against Q50W in experiment [1] came out at 6 fold; in experiment [2] it was 13 fold; in experiment [4], 6 fold.
Take “CGRP(8-37) N31D/S34P/K35W/A36S (peptide)”: the cAMP antagonism in COS-7 cells; estimated receptor residence time is 12.5 h in experiment [5], 5.2 h in experiment [3] and 11 h in experiment [6].
In turn, GPAGRQDSAPVDPSSPWSY (modifications not checked) [AM2/IMD H45W] yielded a pKI in experiment [7] of 6.08.
